Where two headings read alike, the source gives them in different places.
Experiments:
[1] = biological target: ATRIP peptide (Homo sapiens) (UniProt Q8WXE1); settings: cited from earlier work
[2] = biological target: ATRIP peptide (Homo sapiens) (UniProt Q8WXE1); settings: cited from earlier work; remark: listed apart in the source
[3] = biological target: T1, TbRPA1 DBD-AB (Trypanosoma brucei) (UniProt Q384B5); test: MST; settings: 20 mM Tris pH 7.5, 10 mM NaCl, 10 mM MgCl2, 2 mM DTT, 10% glycerol, 0.1 mg/ml BSA, 15 min, room temperature; EMSA 2 nM probe (gel at 4 C), MST 10 nM probe
T1 sequence: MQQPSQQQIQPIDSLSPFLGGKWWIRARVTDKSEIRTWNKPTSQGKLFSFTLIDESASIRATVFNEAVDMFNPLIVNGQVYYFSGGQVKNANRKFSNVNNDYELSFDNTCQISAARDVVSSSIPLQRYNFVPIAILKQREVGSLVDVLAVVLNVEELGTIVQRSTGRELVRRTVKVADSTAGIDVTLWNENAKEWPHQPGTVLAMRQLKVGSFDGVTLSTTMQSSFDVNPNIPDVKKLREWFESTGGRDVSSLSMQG

[4] = biological target: TbRPA complex: 6xHis-RPA1;TbRPA2;TbRPA3 (Trypanosoma brucei;Trypanosoma brucei;Trypanosoma brucei) (UniProt Q384B5); test: MST; settings: 20 mM Tris pH 7.5, 10 mM NaCl, 10 mM MgCl2, 2 mM DTT, 10% glycerol, 0.1 mg/ml BSA, 15 min, room temperature, EMSA 2 nM probe (gel at 4 C), MST 10 nM probe

Chain of ATRIP peptide (Homo sapiens) (Q8WXE1 whole entry): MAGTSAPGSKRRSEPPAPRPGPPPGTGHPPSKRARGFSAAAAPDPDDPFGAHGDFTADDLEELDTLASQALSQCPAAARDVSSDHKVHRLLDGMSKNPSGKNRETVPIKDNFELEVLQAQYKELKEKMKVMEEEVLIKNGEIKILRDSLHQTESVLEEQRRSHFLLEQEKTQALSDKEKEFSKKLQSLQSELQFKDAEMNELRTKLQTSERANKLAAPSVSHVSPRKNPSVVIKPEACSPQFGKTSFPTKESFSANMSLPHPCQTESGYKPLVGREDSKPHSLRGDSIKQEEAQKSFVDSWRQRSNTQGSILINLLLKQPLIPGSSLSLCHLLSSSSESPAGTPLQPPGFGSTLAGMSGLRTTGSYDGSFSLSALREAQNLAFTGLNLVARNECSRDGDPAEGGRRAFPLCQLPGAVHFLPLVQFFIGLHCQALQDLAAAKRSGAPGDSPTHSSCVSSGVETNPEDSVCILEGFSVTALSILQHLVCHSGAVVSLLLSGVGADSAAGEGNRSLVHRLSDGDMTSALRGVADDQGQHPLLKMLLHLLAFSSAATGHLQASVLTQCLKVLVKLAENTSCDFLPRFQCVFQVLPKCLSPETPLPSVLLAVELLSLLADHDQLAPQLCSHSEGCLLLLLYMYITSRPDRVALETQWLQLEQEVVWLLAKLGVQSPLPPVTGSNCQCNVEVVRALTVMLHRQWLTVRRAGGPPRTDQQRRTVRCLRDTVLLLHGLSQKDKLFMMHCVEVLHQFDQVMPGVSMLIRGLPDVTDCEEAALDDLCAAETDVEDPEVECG
Chain of RPA1 DBD-AB DBD-AB (P27694 181-422): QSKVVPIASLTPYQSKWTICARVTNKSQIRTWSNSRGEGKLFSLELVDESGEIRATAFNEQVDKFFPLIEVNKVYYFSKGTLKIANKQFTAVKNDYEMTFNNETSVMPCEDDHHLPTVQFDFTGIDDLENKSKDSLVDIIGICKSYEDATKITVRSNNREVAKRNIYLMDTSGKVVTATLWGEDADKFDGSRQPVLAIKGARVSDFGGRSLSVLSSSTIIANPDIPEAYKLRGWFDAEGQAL
Chain of RPA1 DBD-F DBD-F (P27694 1-120): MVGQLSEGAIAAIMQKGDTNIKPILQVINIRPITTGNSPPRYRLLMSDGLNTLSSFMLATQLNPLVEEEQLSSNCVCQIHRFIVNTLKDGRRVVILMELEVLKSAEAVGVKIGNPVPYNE

For “RPA1 DBD-AB DBD-AB (from UniProt P27694)”, the Kd [1] is listed as 12 µM.

In the case of RPA1 DBD-F DBD-F (from UniProt P27694), the Kd [2] is listed as 7.4 µM.

Substance TTTTTTTTTTTT [dT12] has a Kd [3] of 0.0605 µM.

In the case of TTTTTTTTTTTTTTTTTTTT [dT20], the Kd ([4]; 17.2 nM in peer review file) is reported as 0.017 µM.

TTTTTTTTTTTTTTTTTTTTTTTTTTTTTTTT [dT32] showed a Kd [4] of 0.0132 µM and a Kd ([4]; second measurement, with S105T / length series) of 0.0155 µM.

Reference: PMC10359466, “Identification of a small-molecule inhibitor that selectively blocks DNA-binding by Trypanosoma brucei replication protein A1” (Nature Communications, 2023)
